# Reference: US20210388084A1 (JJP BIOLOGICS SP Z O O, published 2021)
# T1: membrane full-length cynomolgus monkey CD89 (cynomolgus monkey)
# T1 construct: also called cynoCD89; cynomolgus EC1-CD89
# T1 chain: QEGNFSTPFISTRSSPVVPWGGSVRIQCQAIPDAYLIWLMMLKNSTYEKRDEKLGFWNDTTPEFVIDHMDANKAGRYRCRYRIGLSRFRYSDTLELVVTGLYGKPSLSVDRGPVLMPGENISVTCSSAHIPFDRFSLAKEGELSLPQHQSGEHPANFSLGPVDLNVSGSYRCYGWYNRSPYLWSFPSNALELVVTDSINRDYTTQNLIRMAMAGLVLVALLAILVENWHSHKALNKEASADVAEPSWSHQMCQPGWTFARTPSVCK
# T2: chimeric human/cynomolgus monkey CD89-IV (human/cynomolgus monkey chimera, UniProt P24071 22-287)
# T2 construct: also called ΔArg97-Gly121 human EC1-CD89
# T2 chain: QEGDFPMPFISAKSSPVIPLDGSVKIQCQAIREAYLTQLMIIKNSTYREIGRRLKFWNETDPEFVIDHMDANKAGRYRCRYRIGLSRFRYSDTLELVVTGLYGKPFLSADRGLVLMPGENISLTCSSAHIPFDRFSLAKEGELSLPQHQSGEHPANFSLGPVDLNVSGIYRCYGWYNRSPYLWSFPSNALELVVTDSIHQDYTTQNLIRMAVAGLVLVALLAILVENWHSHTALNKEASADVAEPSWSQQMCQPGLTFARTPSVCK
# T3: chimeric human/cynomolgus monkey CD89-I (human/cynomolgus monkey chimera, UniProt P24071 22-287)
# T3 construct: also called ΔGln22-Lys46 human EC1-CD89; I (22-46)
# T3 chain: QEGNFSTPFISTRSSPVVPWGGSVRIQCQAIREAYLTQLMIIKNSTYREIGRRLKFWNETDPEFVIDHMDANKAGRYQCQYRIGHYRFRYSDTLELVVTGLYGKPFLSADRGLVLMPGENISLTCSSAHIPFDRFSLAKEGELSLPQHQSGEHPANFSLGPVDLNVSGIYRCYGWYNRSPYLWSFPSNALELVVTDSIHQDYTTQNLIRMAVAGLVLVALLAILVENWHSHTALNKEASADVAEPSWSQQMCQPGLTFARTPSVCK
# T4: chimeric bovine EC1-Fcγ2R/human EC2-CD89 (bovine/human chimera)
# T4 chain: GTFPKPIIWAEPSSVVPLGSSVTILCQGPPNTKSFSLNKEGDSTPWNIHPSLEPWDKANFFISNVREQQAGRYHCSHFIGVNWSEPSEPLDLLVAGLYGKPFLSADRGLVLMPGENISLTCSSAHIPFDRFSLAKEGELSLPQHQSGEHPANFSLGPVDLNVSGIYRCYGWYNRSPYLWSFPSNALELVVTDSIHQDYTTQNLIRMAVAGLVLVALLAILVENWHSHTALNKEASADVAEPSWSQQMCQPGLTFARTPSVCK
# How the values were obtained:
# [1] = molecular target: T1, membrane full-length cynomolgus monkey …; experiment: FACS, transiently transfected HEK293F; - = no binding
# Method: (§1) After 48 hours, the binding of CD89/IgA blocking mouse anti-human CD89 antibodies to aforementioned chimeric human CD89/cynomolgus monkey CD89 constructs on transfected cells was analyzed by FACS analysis. To this end, transient transfected HEK293F cells were put at 10×10⁶ cells/mL in ice-chilled phosphate-buffered saline containing 0.1% BSA (Sigma)/0.05% NaN₃ (PBS/BSA/NaN₃) supplemented with 50 μg/mL human IgGs (blocking Fcγ receptors; Sigma) for 10 minutes at 4° C. Then, 10 μL/tube (ie, 0.1×10⁶ cells) of these cells were incubated with or without 100 μL purified mouse anti-human CD89 antibody at 10 μg/mL (in PBS/BSA/NaN₃) for 30 minutes at 4° C. […] After extensive washing in PBS/BSA/NaN₃, cells were subsequently incubated with 1:200 diluted PE-conjugated goat anti-mouse IgG Fey-specific antibodies (Jackson ImmunoResearch) for 30 minutes at 4° C. After extensive washing in PBS/BSA/NaN₃, cells were fixed in 2% formaldehyde in PBS/BSA/NaN₃ for 30 minutes at 4° C.
# [2] = molecular target: T2, chimeric human/cynomolgus monkey CD89-IV; experiment: FACS, transiently transfected HEK293F, 10 ug/mL; ++ strong, + intermediate, -/+ weak
# Method: as §1
# [3] = molecular target: T3, chimeric human/cynomolgus monkey CD89-I; experiment: as above
# Method: as §1
# [4] = molecular target: T5, membrane-bound full-length human CD89 (human, UniProt P24071 22-287); experiment: FACS, HEK293F-huCD89, 24 h 37C no NaN3, Ab 10 ug/mL then IgA; competitor heat-aggr serum IgA
# T5 construct: on stably or transiently transfected HEK293F cells; also called FcalphaRI; huCD89
# Method: (§2) After extensive washing in PBS/BSA/NaN₃, 1:200 diluted PE-conjugated streptavidin (Jackson ImmunoResearch) was added, and incubated for 30 minutes at 4° C. After extensive washing in PBS/BSA/NaN₃, cells were fixed in 2% formaldehyde in PBS/BSA/NaN₃ for 30 minutes at 4° C.
# [5] = molecular target: T5, membrane-bound full-length human CD89; experiment: FACS, HEK293F-huCD89, 4C +NaN3, Ab 10 ug/mL then IgA; competitor non-aggr serum IgA
# Method: Then, 10 μL/tube (ie, 0.1×10⁶ cells) of these cells were incubated with or without 50 μL purified mouse anti-human CD89 antibody at 20 μg/mL (in PBS/BSA/NaN₃) for 30 minutes at 4° C. […] After extensive washing in PBS/BSA/NaN₃, 1:200 diluted PE-conjugated streptavidin (Jackson ImmunoResearch) was added, and incubated for 30 minutes at 4° C. After extensive washing in PBS/BSA/NaN₃, cells were fixed in 2% formaldehyde in PBS/BSA/NaN₃ for 30 minutes at 4° C.
# [6] = molecular target: T5, membrane-bound full-length human CD89; experiment: FACS, HEK293F-huCD89, unlabeled Ab 10 ug/mL first; competitor MIP8a-PE
# Method: (§3) Then, 10 μL/tube (ie, 0.1×10⁶ cells) of these cells were incubated with or without 100 μL purified mouse anti-human CD89 antibody at 10 μg/mL (in PBS/BSA/NaN₃) for 30 minutes at 4° C. […] After extensive washing in PBS/BSA/NaN₃, cells were fixed in 2% formaldehyde in PBS/BSA/NaN₃ for 30 minutes at 4° C.
# [7] = molecular target: T5, membrane-bound full-length human CD89; experiment: FACS, HEK293F-huCD89, half-maximum binding
# Method: Then, 10 μL/tube (ie, 0.1×10⁶ cells) of these cells were incubated with or without 100 μL titrated (in PBS/BSA/NaN₃) purified chimeric mouse/human anti-human CD89 antibody/tube for 30 minutes at 4° C. […] After extensive washing in PBS/BSA/NaN₃, cells were subsequently incubated with 1:200 diluted PE-conjugated goat anti-human IgG Fey-specific antibodies (Jackson ImmunoResearch) for 30 minutes at 4° C. After extensive washing in PBS/BSA/NaN₃, cells were fixed in 2% formaldehyde in PBS/BSA/NaN₃ for 30 minutes at 4° C.
# [8] = molecular target: T6, recombinant C-terminal polyhistidine-tagged human (extracellular) CD89 (human, UniProt P24071 22-227); experiment: ELISA, coated rhuCD89, half-maximum binding
# T6 construct: extracellular domain; bought (Sino Biological); also called rhuCD89
# Method: After extensive washing with PBS/0.05% Tween 20, plates were blocked with PBS/0.05% Tween 20/1% BSA (Roche) for 1 hour at RT. Subsequently, plates were incubated with 50 μL titrated (in block buffer) purified mouse anti-human CD89 antibody/well for 1 hour at RT. […] After extensive washing in PBS/0.05% Tween 20, binding of antibodies on rhuCD89 was determined with 1:5,000 diluted horseradish peroxidase (HRP)-conjugated goat anti-mouse IgG Fey-specific antibodies (Jackson ImmunoResearch) for 1 hour at RT, followed by a ready-to-use solution of TMB substrate (Invitrogen) for colorimetric detection.
# After extensive washing with PBS/0.05% Tween 20, plates were blocked with PBS/0.05% Tween 20/1% BSA (Roche) for 1 hour at RT. Subsequently, plates were incubated with and without 50 μL titrated (in block buffer) purified chimeric mouse/human anti-human CD89 antibody/well for 1 hour at RT. After extensive washing in PBS/0.05% Tween 20, binding of antibodies on rhuCD89 was determined with 1:5,000 diluted horseradish peroxidase (HRP)-conjugated goat anti-human IgG Fey-specific antibodies (Jackson ImmunoResearch) for 1 hour at RT, followed by a ready-to-use solution of TMB substrate (Invitrogen) for colorimetric detection.
# [9] = molecular target: T5, membrane-bound full-length human CD89; experiment: FACS, HEK293F-huCD89, 24 h 37C no NaN3, IgA then Ab 10 ug/mL; pre-bound non-aggr serum IgA
# Method: as §2
# [10] = molecular target: T5, membrane-bound full-length human CD89; experiment: FACS, HEK293F-huCD89, 24 h 37C no NaN3, IgA then Ab 10 ug/mL; pre-bound heat-aggr serum IgA
# Method: as §2
# [11] = molecular target: T5, membrane-bound full-length human CD89; experiment: FACS, HEK293F-huCD89, 4C +NaN3, Ab 10 ug/mL then IgA; competitor heat-aggr serum IgA
# Method: To mimic human IgA immune complexes, human (serum-derived) IgA (Bethyl Laboratories) was heated at 63° C. for 30 minutes, and cooled down to RT followed by centrifugation at 4° C. 12000×g for 2 minutes to remove any insoluble protein precipitation.
# Then, 10 μL/tube (ie, 0.1×10⁶ cells) of these cells were incubated with or without 50 μL purified mouse anti-human CD89 antibody at 20 μg/mL (in PBS/BSA/NaN₃) for 30 minutes at 4° C.
# [12] = molecular target: T5, membrane-bound full-length human CD89; experiment: FACS, HEK293F-huCD89, unlabeled Ab 10 ug/mL first; competitor A59-PE
# Method: as §3
# [13] = molecular target: T4, chimeric bovine EC1-Fcγ2R/human EC2-CD89; experiment: FACS, transiently transfected HEK293F
# Method: After 48 hours and/or 72 hours, the binding of CD89/IgA blocking mouse anti-human CD89 antibodies to aforementioned chimeric human/bovine receptors on transfected cells was analyzed by FACS analysis. To this end, transient transfected HEK293F cells were put at 10×10⁶ cells/mL in ice-chilled phosphate-buffered saline containing 0.1% BSA (Sigma)/0.05% NaN₃ (PBS/BSA/NaN₃) supplemented with 50 μg/mL human IgGs (blocking Fcγ receptors; Sigma) for 10 minutes at 4° C. Then, 10 μL/tube (ie, 0.1×10⁶ cells) of these cells were incubated with or without 100 μL purified mouse anti-human CD89 antibody at 10 μg/mL (in PBS/BSA/NaN₃) for 30 minutes at 4° C. […] After extensive washing in PBS/BSA/NaN₃, cells were subsequently incubated with 1:200 diluted PE-conjugated goat anti-mouse IgG Fey-specific antibodies (Jackson ImmunoResearch) for 30 minutes at 4° C. After extensive washing in PBS/BSA/NaN₃, cells were fixed in 2% formaldehyde in PBS/BSA/NaN₃ for 30 minutes at 4° C.
# [14] = molecular target: T5, membrane-bound full-length human CD89; experiment: FACS, HEK293F-huCD89, 24 h 37C no NaN3, Ab 10 ug/mL then IgA; competitor non-aggr serum IgA
# Method: as §2
binding result [1],binding result [2],binding result [3],percent IgA binding (remaining) [4],percent IgA binding [5],% blocking of MIP8a-PE binding [6],EC50 [7],EC50 [8],percent IgA binding (remaining) [9],percent IgA binding (remaining) [10],percent IgA binding [11],% blocking of A59-PE binding [12],binding result [13],percent IgA binding (remaining) [14],Binder
no binding (tested: 10 µg/mL),binds,binds,0 to 25%,0 to 25%,< 25%,0.637 µg/mL,0.02 µg/mL,0 to 25%,0 to 25%,0 to 25%,< 25%,no binding (tested: 10 µg/mL),0 to 25%,"mouse anti-human CD89-specific antibody 10E7 (antibody, mouse IgG1, V domains shown) VH: EVQLVESGGGLVQPGGSLKLSCAASGLTFSSYGMSWVRQTPDKRLELVATINGNGDITYYPDSVKGRFTISRDNAKNTLYLQMSSLKSEDTAMYYCARDYDYDYAMDYWGQGTSVTVSS VL: DIQMTQSTSSLSASLGDSVTISCRASQDIINYLNWYQQKPDGTVKLLIYYTSRLHSGVPSRFSGSGSGTEYSLTVSNLEKEDIATYFCQQGKTLPYTFGGGTKLEIK"
no binding (tested: 10 µg/mL),binds,binds,26 to 50%,0 to 25%,< 25%,0.26 µg/mL,0.013 µg/mL,0 to 25%,26 to 50%,0 to 25%,,no binding (tested: 10 µg/mL),0 to 25%,"mouse anti-human CD89-specific antibody 20B4 (antibody, mouse IgG1, V domains shown) VH: QVQLKESGPGLVAPSQSLSITCTVSGFSLTSYGVHWVRQPPGKGLEWLGIIWAGGSTSYNSALMSRLSISKDNSKSQVFLKMNSLQTDDTAMYYCARDHYDLFAYWGQGTLVTVSA VL: DILMTQSPSSMSVSLGDTVSITCHASQDISRNIGWLQQKPGKSFKGLIYHGTNLEDGVPSRFSGSGSGADYSLTISSLESEDFADYYCVQYAQFPRTFGGGTKLEIK"
no binding (tested: 10 µg/mL),binds,binds,0 to 25%,0 to 25%,< 25%,0.714 µg/mL,0.052 µg/mL,0 to 25%,0 to 25%,0 to 25%,< 25%,no binding (tested: 10 µg/mL),0 to 25%,"mouse anti-human CD89-specific antibody 8F3 (antibody, mouse IgG1, V domains shown) VH: EVQLVESGGGLVKPGGSLKLSCAASGFTFSNYGMSWVRQTPDKRLEWVATMHSGGTYTYYPDNVKGRFTISRDNAKNNLYLQMSSLRSEDTAMYYCARETGLYDGLFDFWGQGTTLTVSS VL: DVQITQSPSYLAASPGETITINCRASKTISKYLAWYQEKPGKTNMLLIYSGSTLQSGVPSRFSGSGSGTDFTLTISSLEPEDLAMYYCQQHDEYPWTFGGGTKLEIK"
